From article PMC10956426, “Lipid-Binding Regions within PKC-Related Serine/Threonine Protein Kinase N1 (PKN1) Required for Its Regulation” (Biochemistry, 2024)
Several values for one entry are separate records, joined by “and”; a condition that tells them apart may be missing. Equal values may be shown once.

Legend:
[1] = molecular target: the molecule itself; assay: SEC; Superdex-200 Increase (10/300 GL), 50 mM Tris-HCl pH 7.5, 150 mM NaCl, 0.075% Brij-35; native conditions
[2] = molecular target: the molecule itself; assay: SEC; 25 mL Sephacryl 200 (S-200) column, 20 mM phosphate buffer pH 7.4, 150 mM NaCl, 4 °C; refolded PKN1-(C2); calibrated column
[3] = molecular target: the molecule itself; assay: MALDI-TOF mass spectrometry; sinapinic acid matrix in 70% acetonitrile, 0.05% TFA; positive ion-linear mode

B1: PKN1-(25–485) (domain or fragment)
chain: not shown
notes: PKC-related serine/threonine protein kinase N1 (PKN1), rat, residues 25-485 (HR1 and the AlphaFold-defined C2 region 310-473); The pET15b-PKN1-(25–485) plasmid was synthesized commercially; the vector probably adds an N-terminal His tag, and no cleavage is described; also called histidine-tagged PKN1 (residues 25–485)
[1]
  stoichiometry N: 3

B2: PKN1-(C2)-(342–605) (domain or fragment)
chain: not shown
notes: PKC-related serine/threonine protein kinase N1 (PKN1), rat, residues 342-605 (C2-like domain and part of the hinge region), amplified by PCR from rat liver; Cloned between NdeI and XhoI of pET15b; this vector probably adds an N-terminal His tag with a thrombin site, and no cleavage is described; also called PKN1-(342–605); histidine-tagged PKN1 (residues 342–605)
[2]
  stoichiometry N: 3 and 4
[3]
  stoichiometry N: 2
